Experimental data published in paper PMC10657180.

How the values were obtained:
[1] = target: neddylated CUL1-RBX1 with the FBXW7-SKP1 substrate receptor (human) (UniProt Q13616)
[2] = target: neddylated CUL2-RBX1 in complex with the KLHDC2-ELONGIN B/C substrate receptor (human) (UniProt Q13617)
[3] = target: neddylated CUL2-RBX1 in complex with the VHL-ELONGIN B/C substrate receptor (human) (UniProt Q13617)

ARIH1, sequence (Q9Y4X5 whole entry): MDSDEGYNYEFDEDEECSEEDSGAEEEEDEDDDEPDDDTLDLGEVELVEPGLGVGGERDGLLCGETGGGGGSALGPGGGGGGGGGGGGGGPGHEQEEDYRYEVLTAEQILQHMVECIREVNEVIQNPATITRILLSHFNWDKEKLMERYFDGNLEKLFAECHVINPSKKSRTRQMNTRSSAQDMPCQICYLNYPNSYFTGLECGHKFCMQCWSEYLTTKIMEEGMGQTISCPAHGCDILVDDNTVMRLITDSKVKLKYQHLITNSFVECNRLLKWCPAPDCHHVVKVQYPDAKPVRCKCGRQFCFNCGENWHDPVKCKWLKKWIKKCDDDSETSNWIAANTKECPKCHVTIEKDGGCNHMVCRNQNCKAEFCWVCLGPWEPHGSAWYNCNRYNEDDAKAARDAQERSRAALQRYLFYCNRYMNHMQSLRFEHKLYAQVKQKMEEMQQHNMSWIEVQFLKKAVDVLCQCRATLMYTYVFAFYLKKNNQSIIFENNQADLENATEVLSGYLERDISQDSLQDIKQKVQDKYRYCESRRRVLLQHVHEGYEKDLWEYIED

| Substance | Km of ARIH1 for the CRL-substrate complex (single-encounter ubiquitylation, ARIH1 titrated, 10 s, Michaelis-Menten fit); peptide on the CRL: KR Lys 387 cycE [1] | Km of ARIH1 for the CRL-substrate complex (single-encounter ubiquitylation, ARIH1 titrated, 10 s, Michaelis-Menten fit); peptide on the CRL: KR Ser 387 cycE [1] | Km of ARIH1 for the CRL-substrate complex (single-encounter ubiquitylation, ARIH1 titrated, 10 s, Michaelis-Menten fit); peptide on the CRL: Lys only cycE [1] | Km of ARIH1 for the CRL-substrate complex (single-encounter ubiquitylation without cold competitor peptide, ARIH1 titrated, 10 s, Michaelis-Menten fit); peptide on the CRL: Arg47 Arg48 SelK [2] | Km of ARIH1 for the CRL-substrate complex (single-encounter ubiquitylation without cold competitor peptide, ARIH1 titrated, 10 s, Michaelis-Menten fit); peptide on the CRL: Lys47 Arg48 SelK [2] | Km of ARIH1 for the CRL-substrate complex (single-encounter ubiquitylation, ARIH1 titrated, 10 s, Michaelis-Menten fit); peptide on the CRL: NSer Hif1α [3] | Km of ARIH1 for the CRL-substrate complex (single-encounter ubiquitylation, ARIH1 titrated, 10 s, Michaelis-Menten fit); peptide on the CRL: WT Hif1α [3] |
| --- | --- | --- | --- | --- | --- | --- | --- |
| A397D/K398I/A399V ARIH1 (from UniProt Q9Y4X5 1-557) (enzyme) | 1.12 µM | 1.19 µM | 0.544 µM | – | – | – | – |
| ARIH1 (from UniProt Q9Y4X5 1-557) (enzyme) | – | – | – | 0.391 µM | 0.268 µM | 0.66 µM | 0.403 µM |
| K342A/E343A ARIH1 (from UniProt Q9Y4X5 1-557) (enzyme) | 1.56 µM | 0.461 µM | 1.22 µM | – | – | – | – |
| N358A ARIH1 (from UniProt Q9Y4X5 1-557) (enzyme) | 0.874 µM | 1.04 µM | 0.98 µM | – | – | – | – |
